According to patent US20170313764A1 (ACADEMISCH MEDISCH CENTRUM, published 2017):
Like-named read-outs stand apart in the source and are kept apart here.

B1: AT15-012 (antibody, V domains shown)
VH: QVQLVQSGAEVKKPGSSVKVSCKASGGNFNIFPITWVRQAPGQGLEWMGEIIPMLGTPEYAQKFQGRVTITADKSTGTAFMELSSLRSEDTAVYYCARTETTLPGTLFFVYYFHFWGQGTPVTVSS
VL: EIVMTQSPVTLSVSPGERAILSCRASQSVSSSLAWYQQKPGQAPRLLIYGASTRATGVPARFSGSGSGTEFTLTISSVQSEDYAIYFCQQYNDRPPWTFGQGTKVEIK
notes: also called AT15-12
B2: AT15-009 (antibody, V domains shown)
VH: QVLLVQSGAEVKKPGSSVKVSCKASGGTFSTYAISWLRQAPGQGPEWMGGIVPMFGITNYAQHFQGRITITADKSTSTAYMELSSLGSEDTAVYFCARDLRSGGTFFSRGFDLWGPGTKVTVSS
VL: EIVLTQSPGTLSLSPGERATLSCRASQSVSSSFLTWYQQKPGQAPRLLIFDASTRATGVPDRFSGSGSGTDFTLTISRLEPEDFGVYYCQQFDSSPTFGGGTKVEIK
B3: AT12-010 (antibody, V domains shown)
VH: QLQLVQSGAEVKKPGSSVKVSCKASGGTFTSYAINWVRQVPGQGLEWMGEISPVFGTTHYAQKFQGRLKITADESADTAYMELSSLRSDDTAVYYCGRDRAPRLCSGGRCHSPPDHWGQGTLVTVSS
VL: DIQMTQSPSSVSASVGDRVTITCRASQGFGNWLAWYQQKPGRAPKLLIFGASTLQNGVPSRFSGSASGTDFTLTITSLQPEDFATYYCLQTNTFPYTFGQGTKVEIKR
B4: AT12-007 (antibody, V domains shown)
VH: QVQLEQSGAEVKKPGASVKVSCKVSGYTLTELSMHWVRQAPGKGLEWMGSFDPADGERLYAQKFQGRVIMSEDTSTDTAYMELSSLRSEDAAVYYCATAPRMTMFGVIMALDSWGQGTLVTVSS
VL: DIQMTQSPSTLSASLGDRVTITCRASQNINKYLAWYQQKPGKAPKLLIYKASNLQSGVPSRFSGSGSGTDFILTISSLQPDDFATYYCQQYTTYSAWTFGQGTNVDIKR

Key:
Assay in all cases: ELISA, GNA-captured E1E2 lysate; EC50 wild type / EC50 mutant
[1] = molecular target: T1, E1E2 of HCV isolate H77 with single mutation W529A (Hepatitis C virus genotype 1a, strain …, UniProt P27958 192-383; P27958 384-746)
[2] = molecular target: T2, E1E2 of HCV isolate H77 with single mutation T435A (Hepatitis C virus genotype 1a, strain …, UniProt P27958 192-383; P27958 384-746)
[3] = molecular target: E1E2 of HCV isolate H77 with single mutation F442A (Hepatitis C virus genotype 1a, strain …, UniProt P27958 192-383; P27958 384-746)
[4] = molecular target: E1E2 of HCV isolate H77 with single mutation R657A (Hepatitis C virus genotype 1a, strain …, UniProt P27958 192-383; P27958 384-746)
[5] = molecular target: E1E2 of HCV isolate H77 with single mutation Y527A (Hepatitis C virus genotype 1a, strain …, UniProt P27958 192-383; P27958 384-746)
[6] = molecular target: E1E2 of HCV isolate H77 with single mutation A439G (Hepatitis C virus genotype 1a, strain …, UniProt P27958 192-383; P27958 384-746)
[7] = molecular target: E1E2 of HCV isolate H77 with single mutation W616A (Hepatitis C virus genotype 1a, strain …, UniProt P27958 192-383; P27958 384-746)
[8] = molecular target: E1E2 of HCV isolate H77 with single mutation T526A (Hepatitis C virus genotype 1a, strain …, UniProt P27958 192-383; P27958 384-746)
[9] = molecular target: E1E2 of HCV isolate H77 with single mutation G436A (Hepatitis C virus genotype 1a, strain …, UniProt P27958 192-383; P27958 384-746)
[10] = molecular target: E1E2 of HCV isolate H77 with single mutation N415A (Hepatitis C virus genotype 1a, strain …, UniProt P27958 192-383; P27958 384-746)
[11] = molecular target: E1E2 of HCV isolate H77 with single mutation G530A (Hepatitis C virus genotype 1a, strain …, UniProt P27958 192-383; P27958 384-746)
[12] = molecular target: E1E2 of HCV isolate H77 with single mutation S424A (Hepatitis C virus genotype 1a, strain …, UniProt P27958 192-383; P27958 384-746)
[13] = molecular target: E1E2 of HCV isolate H77 with single mutation Y443A (Hepatitis C virus genotype 1a, strain …, UniProt P27958 192-383; P27958 384-746)
[14] = molecular target: E1E2 of HCV isolate H77 with single mutation D698A (Hepatitis C virus genotype 1a, strain …, UniProt P27958 192-383; P27958 384-746)
[15] = molecular target: T1, E1E2 of HCV isolate H77 with single …; remark: listed apart in the source
[16] = molecular target: E1E2 of HCV isolate H77 with single mutation Y485A (Hepatitis C virus genotype 1a, strain …, UniProt P27958 192-383; P27958 384-746)
[17] = molecular target: E1E2 of HCV isolate H77 with single mutation D535A (Hepatitis C virus genotype 1a, strain …, UniProt P27958 192-383; P27958 384-746)
[18] = molecular target: E1E2 of HCV isolate H77 with single mutation L441A (Hepatitis C virus genotype 1a, strain …, UniProt P27958 192-383; P27958 384-746)
[19] = molecular target: T2, E1E2 of HCV isolate H77 with single …; remark: listed apart in the source

Binder | relative binding, mutant vs wild type [1] | relative binding, mutant vs wild type [2] | relative binding, mutant vs wild type [3] | relative binding, mutant vs wild type [4] | relative binding, mutant vs wild type [5] | relative binding, mutant vs wild type [6] | relative binding, mutant vs wild type [7] | relative binding, mutant vs wild type [8] | relative binding, mutant vs wild type [9] | relative binding, mutant vs wild type [10] | relative binding, mutant vs wild type [11] | relative binding, mutant vs wild type [12] | relative binding, mutant vs wild type [13] | relative binding, mutant vs wild type [14] | relative binding, mutant vs wild type [15] | relative binding, mutant vs wild type [16] | relative binding, mutant vs wild type [17] | relative binding, mutant vs wild type [18] | relative binding, mutant vs wild type [19]
B1 | 77% | 99% | – | – | – | – | – | – | – | – | – | – | – | – | – | – | – | – | –
B2 | 82% | 101% | – | – | – | – | – | – | – | – | – | – | – | – | – | – | – | – | –
B3 | – | – | < 10% | 99% | 19% | 45% | < 10% | 29% | < 10% | 117% | < 10% | 16% | < 10% | 86% | < 10% | 107% | 5% | < 10% | 47%
B4 | – | – | < 10% | 116% | 24% | 67% | < 10% | 31% | 35% | 115% | < 10% | 34% | < 10% | 103% | < 10% | 114% | 15% | < 10% | 84%
